# In patent US20100144617:
# T1: Native porcine OXM, P01274
# T1 chain: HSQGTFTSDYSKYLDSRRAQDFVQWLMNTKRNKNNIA
# T2: OXM2 (not fully specified)
# T2 chain: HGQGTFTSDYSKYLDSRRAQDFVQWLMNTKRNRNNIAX
# B1: recombinant soluble human DP-IV (protein)
# chain: SRKTYTLTDYLKNTYRLKLYSLRWISDHEYLYKQENNILVFNAEYGNSSVFLENSTFDEFGHSINDYSISPDGQFILLEYNYVKQWRHSYTASYDIYDLNKRQLITEERIPNNTQWVTWSPVGHKLAYVWNNDIYVKIEPNLPSYRITWTGKEDIIYNGITDWVYEEEVFSAYSALWWSPNGTFLAYAQFNDTEVPLIEYSFYSDESLQYPKTVRVPYPKAGAVNPTVKFFVVNTDSLSSVTNATSIQITAPASMLIGDHYLCDVTWATQERISLQWLRRIQNYSVMDICDYDESSGRWNCLVARQHIEMSTTGWVGRFRPSEPHFTLDGNSFYKIISNEEGYRHICYFQIDKKDCTFITKGTWEVIGIEALTSDYLYYISNEYKGMPGGRNLYKIQLSDYTKVTCLSCELNPERCQYYSVSFSKEAKYYQLRCSGPGLPLYTLHSSVNDKGLRVLEDNSALDKMLQNVQMPSKKLDFIILNETKFWYQMILPPHFDKSKKYPLLLDVYAGPCSQKADTVFRLNWATYLASTENIIVASFDGRGSGYQGDKIMHAINRRLGTFEVEDQIEAARQFSKMGFVDNKRIAIWGWSYGGYVTSMVLGSGSGVFKCGIAVAPVSRWEYYDSVYTERYMGLPTPEDNLDHYRNSTVMSRAENFKQVEYLLIHGTADDNVHFQQSAQISKALVDVGVDFQAMWYTDEDHGIASSTAHQHIYTHMSHFIKQCFSLP
# Columns and labels:
# [1] = molecular target: T1, Native porcine OXM, P01274
# [2] = molecular target: T2, OXM2
protein,measurement,setting,value
B1,loss of potency at hGLP-1R (cAMP HTRF) after preincubation with DP-IV,[1],loss of potency due to preincubation of the peptides with DP-IV
same,loss of potency at hGLP-1R (cAMP HTRF) after preincubation with DP-IV,[2],loss of potency due to preincubation of the peptides with DP-IV
